Values quoted from earlier work as cited in article PMC2847435.

Assays:
[1] = target: PDZ ligand peptide VKQSLL
[2] = target: PDZ ligand peptide VKESLV
[3] = target: Src pY527 tail pY527 tail (UniProt P12931)

| Kd [1] [µM] | Kd [2] [µM] | Kd [3] [µM] | Substance |
| --- | --- | --- | --- |
| 100 | 8 |  | syntrophin PDZ domain PDZ (from UniProt Q61234) |
|  |  | 29 | Src SH2 domain SH2 (from UniProt P12931) |
